Results reported in paper PMC3805550.

Biological target: F-actin from chicken pectoral (skeletal) muscle (chicken) (UniProt P68139)
Test: co-sedimentation; 5 uM F-actin with 0.1-6 uM AS-Cdc8p, 20 mM MOPS pH 7.0, 150 mM NaCl, 2 mM MgCl2, 20 C, 60,000 rpm 30 min; pellets and supernatants on SDS-PAGE, densitometry; Hill equation fit, apparent constant (Kapp)

Ka: 6.3e+06 M⁻¹
Substance: AS-Cdc8p wildtype (Ala-Ser-Cdc8p, S. pombe tropomyosin with AlaSer at the N terminus) (natural protein)
